Here are results for 43 molecules from patent publication US5849890, “High affinity oligonucleotide ligands to chorionic gonadotropin hormone and related glycoprotein hormones” (NeXstar Pharmaceuticals, Inc.).

Substitutions are numbered along the chain they refer to.

First the molecules themselves.
B1: 2nd generation ligand 58 (ssRNA)
RNA: GGGAGGACGAUGCGGUCUUAAGUUUGAAUUGAACGAUCCUUUUCUUCCAGGCAACAGACGACUCGCCCGA
modifications: 2'-F all pyrimidines
B2: 2nd generation ligand 10 (ssRNA)
RNA: GGGAGGACGAUGCGGAACACCAAUCUUUUUGAACGAUCCUUCGUGGGAGUGCAUCAGACGACUCGCCCGA
modifications: 2'-F all pyrimidines
B3: 2nd generation ligand 93 (ssRNA)
RNA: GGGAGGACGAUGCGGUUCUAGGUCGAAAUUGAACGAUCCUUUUUCGCUAUGGAUCAGACGACUCGCCCGA
modifications: 2'-F all pyrimidines
B4: 2nd generation ligand (SEQ 118) (ssRNA)
RNA: GGGAGGACGAUGCGGGUUCGACAUAAUCUUGAACGAUCCUUGAUUACUUGGUCCCAGACGACUCGCCCGA
modifications: 2'-F all pyrimidines
B5: 2nd generation ligand 33 (ssRNA)
RNA: GGGAGGACGAUGCGGUUCGAUGGCCAUUUGAACGAUCCUUAUUAUCAACGGUCCAGACGACUCGCCCGA
modifications: 2'-F all pyrimidines
B6: 2nd generation ligand 73 (ssRNA)
RNA: GGGAGGACGAUGCGGGGUUUUCUAAGUGUUGAACGAUCCUUCACAUAGCGUGUCCCAGACGACUCGCCCGA
modifications: 2'-F all pyrimidines
B7: 2nd generation ligand 71 (ssRNA)
RNA: GGGAGGACGAUGCGGAUUCGAUUAGAGAUUGAACGAUCCUUUCAUCAGUUGGAUCAGACGACUCGCCCGA
modifications: 2'-F all pyrimidines
B8: 2nd generation ligand 19 (ssRNA)
RNA: GGGAGGACGAUGCGGUUUGACGUAUAAUUGAACGAUCCUUUUCUAGCUUAGACCAGACGACUCGCCCGA
modifications: 2'-F all pyrimidines
B9: 2nd generation ligand 91 (ssRNA)
RNA: GGGAGGACGAUGCGGUUCAUUUUUGUGUUGAACGAUCCUUCACUAACCUACCACAGACGACUCGCCCGA
modifications: 2'-F all pyrimidines
B10: 2nd generation ligand 5 (ssRNA)
RNA: GGGAGGACGAUGCGGGUUUAAUCUCGGAUUGAACGAUCCUUUCUGUAAUUAGUCCAGACGACUCGCCCGA
modifications: 2'-F all pyrimidines
B11: 2nd generation ligand 98 (ssRNA)
RNA: GGGAGGACGAUGCGGGUUCCAGUAUUAGUUGAACGAUCCUUCUUAUCUGGAGUCCAGACGACUCGCCCGA
modifications: 2'-F all pyrimidines
B12: 2nd generation ligand 89 (ssRNA)
RNA: GGGAGGACGAUGCGGUGCAUGAUUUAGUUGAACGAUCCUUCCAACUUCCAGCACAGACGACUCGCCCGA
modifications: 2'-F all pyrimidines
B13: 2nd generation ligand 9 (ssRNA)
RNA: GGGAGGACGAUGCGGUUCUACACGAUAUUUGAACGAUCCUUGUAUCUUAGGUCCCAGACGACUCGCCCGA
modifications: 2'-F all pyrimidines
B14: 2nd generation ligand 49 (ssRNA)
RNA: GGGAGGACGAUGCGGUUCGUCAUCGCUAUUGAACGAUCCUUUAGCUGAUGGACCAGACGACUCGCCCGA
modifications: 2'-F all pyrimidines
B15: 2nd generation ligand 42 (ssRNA)
RNA: GGGAGGACGAUGCGGGUUCGAAACUUCCUUGAACGAUCCUUGGAUGUUUUGCUCAGACGACUCGCCCGA
modifications: 2'-F all pyrimidines
B16: 2nd generation ligand 52 (ssRNA)
RNA: GGGAGGACGAUGCGGGAUUUUCCGUUAAUUGAACGAUCCUUUUCACGGACUGCAGACGACUCGCCCGA
modifications: 2'-F all pyrimidines
B17: 2nd generation ligand 74 (ssRNA)
RNA: GGGAGGACGAUGCGGUAAGUUCUAACUUUUGAACGAUCCUUGGCACCCUGACUACAGACGACUCGCCCGA
modifications: 2'-F all pyrimidines
B18: 2nd generation ligand 20 (ssRNA)
RNA: GGGAGGACGAUGCGGUGUUCAUGCUUGAUUGAACGAUCCUUUCAUAGUGUUGGUCAGACGACUCGCCCGA
modifications: 2'-F all pyrimidines
B19: 2nd generation ligand 14 (ssRNA)
RNA: GGGAGGACGAUGCGGUUCGACACGAAAGUUGAACGAUCCUUCUAUCUGUUGGACCAGACGACUCGCCCGA
modifications: 2'-F all pyrimidines
B20: 2nd generation ligand 61 (ssRNA)
RNA: GGGAGGACGAUGCGGUUUAGUGUUUAGUUGAACGAUCCUUCUAACACCAGUCCCAGACGACUCGCCCGA
modifications: 2'-F all pyrimidines
B21: 2nd generation ligand 69 (ssRNA)
RNA: GGGAGGACGAUGCGGGUUUCACUUCAAGUUGAACGAUCCUUCUUGGCUUGAGCACAGACGACUCGCCCGA
modifications: 2'-F all pyrimidines
B22: 2nd generation ligand 25 (ssRNA)
RNA: GGGAGGACGAUGCGGUUCCUGAUUCAAGUUGAACGAUCCUUCCUGCUGUACGUCCAGACGACUCGCCCGA
modifications: 2'-F all pyrimidines
B23: 2nd generation ligand 72 (ssRNA)
RNA: GGGAGGACGAUGCGGAUUCGAUGUAGUUUGAACGAUCCUUGUAUAUAUCGGAUCAGACGACUCGCCCGA
modifications: 2'-F all pyrimidines
B24: 2nd generation ligand 88 (ssRNA)
RNA: GGGAGGACGAUGCGGUUCGUUACGAUAAUUGAACGAUCCUUUUAUCUUUCAGUCCAGACGACUCGCCCGA
modifications: 2'-F all pyrimidines
B25: 2nd generation ligand 86 (ssRNA)
RNA: GGGAGGACGAUGCGGUUCAACAACGUACUUGAACGAUCCUUGUGCUCGUUGAUCCAGACGACUCGCCCGA
modifications: 2'-F all pyrimidines
B26: 2nd generation ligand 23 (ssRNA)
RNA: GGGAGGACGAUGCGGGUUUAAUACAAAGUUGAACGAUCCUUCUUUGCAUUGGACCAGACGACUCGCCCGA
modifications: 2'-F all pyrimidines
B27: 2nd generation ligand 83 (ssRNA)
RNA: GGGAGGACGAUGCGGUUUGAUGAGGUAGUUGAACGAUCCUUCCAUCCGUUAGACCAGACGACUCGCCCGA
modifications: 2'-F all pyrimidines
B28: 2nd generation ligand 11 (ssRNA)
RNA: GGGAGGACGAUGCGGGAUUCUCUUUGAGUUGAACGAUCCUUCUCAUCGCACUUGCCAGACGACUCGCCCGA
modifications: 2'-F all pyrimidines
B29: Class 1 ligand 30 (ssRNA)
RNA: GGGAGACAAGAAUAAACGCUCAAAAGUCACUCGCAGCGCUUCCUGGUUCGAUUGAACGAUCCUUUCGACAGGAGGCUCACAACAGGC
modifications: 2'-F all pyrimidines
B30: Class 1 ligand 37 (ssRNA)
RNA: GGGAGACAAGAAUAAACGCUCAAUUUGGAAGGUCCUGAGUCUCGUUGGUCGUUGAACGAUCCUUCGACAGGAGGCUCACAACAGGC
modifications: 2'-F all pyrimidines
B31: Class 1 ligand 43 (ssRNA)
RNA: GGGAGACAAGAAUAAACGCUCAACCAGAUAAUCCCAAUGAGUCCCUCGAGAUUGAACGAUCCUUUCGACAGGAGGCUCACAACAGGC
modifications: 2'-F all pyrimidines
B32: Class 1 ligand 4 (ssRNA)
RNA: GGGAGACAAGAAUAAACGCUCAAUUUGGAAGAUCCCGGAGUCUCGUUGGUGUUGAACGAUUCUUCGACAGGAGGCUCACAACAGGC
modifications: 2'-F all pyrimidines
B33: Class 1 ligand 8 (ssRNA)
RNA: GGGAGACAAGAAUAAACGCUCAAGUGCCCUGUUAUCUUCCUCGAUCGAUUGAACGAUCCUUUCGACAGGAGGCUCACAACAGGC
modifications: 2'-F all pyrimidines
B34: Class 1 ligand 56 (ssRNA)
RNA: GGGAGACAAGAAUAAACGCUCAAUUUGGAAGAUCCCUGGAGUCUCGUUGGUCGUUGAACGAUCCUUCGACAGGAGGCUCACAACAGGC
modifications: 2'-F all pyrimidines
B35: Class 1 ligand 20 (ssRNA)
RNA: GGGAGACAAGAAUAAACGCUCAAGUCAUAAGCCUAACGGUCCCUAGUCAAUUGAACGAUCCUUCGACAGGAGGCUCACAACAGGC
modifications: 2'-F all pyrimidines
B36: Class 1 ligand 11 (ssRNA)
RNA: GGGAGACAAGAAUAAACGCUCAAUUUAGAAGAUCCCGGAGUCUCGUUGGUCGUUGAACGAUCCUUCGACAGGAGGCUCACAACAGGC
modifications: 2'-F all pyrimidines
B37: Class 1 ligand 49 (ssRNA)
RNA: B36 RNA with A27G, G38A, A39G, G40A
modifications: 2'-F all pyrimidines
B38: Class 1 ligand 26 (ssRNA)
RNA: B36 RNA with A27G, G37U
modifications: 2'-F all pyrimidines
B39: Class 1 ligand 5 (ssRNA)
RNA: B36 RNA with U24A, A27G, A30G, G31U, G37U, C44U, A60G
modifications: 2'-F all pyrimidines
B40: Class 1 ligand 16 (ssRNA)
RNA: B36 RNA with U26C, A27G, G37A
modifications: 2'-F all pyrimidines
B41: Class 1 ligand 18 (first SELEX) (ssRNA)
RNA: B36 RNA with A27C, G37U
modifications: 2'-F all pyrimidines
B42: Class 1 ligand 40 (ssRNA)
RNA: B36 RNA with U26C, A27U, G37A
modifications: 2'-F all pyrimidines
B43: Class 1 ligand 10 (ssRNA)
RNA: B36 RNA with U26C, A27G, C35A
modifications: 2'-F all pyrimidines

T1 sequence (P01215 25-116, chain 1 of 2, other chains not shown): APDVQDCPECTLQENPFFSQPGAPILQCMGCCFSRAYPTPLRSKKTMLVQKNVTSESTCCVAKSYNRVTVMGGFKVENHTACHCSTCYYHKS

The first data set concerns the target T1, human chorionic gonadotropin (hCG) heterodimer (Homo sapiens, UniProt P01215;P0DN86 P01215:25-116,P0DN86:21-165). The data set can be described thus: filter. The settings on record: tags: Calbiochem or Vitro Diagnostics (14,000 IU/mg); chain copies: alpha/beta heterodimer (stated); label: 32P.
Turning to B1, the binding signal came out at 0 % bound at 100 nM.
As to B2, the binding signal was found to be 0 % bound at 100 nM.
In turn, B3 came in with a binding signal of 7.25 % bound at 100 nM.
For B4, the binding signal amounted to 13 % bound at 100 nM.
Turning to B5, the binding signal came out at 0.59 % bound at 100 nM.
B6 displayed a binding signal of 0.84 % bound at 100 nM.
B7: the binding signal was 6.99 % bound at 100 nM.
The same measure, in the same setting: the result for B8 reads 8.52 % bound at 100 nM; that for B9, 2.36 % bound at 100 nM.
The molecule B10 returned a binding signal of 3.14 % bound at 100 nM.
On the same count and under the same terms, as for B11, the figure is 11.7 % bound at 100 nM; as for B12, 0.21 % bound at 100 nM; as for B13, 9.98 % bound at 100 nM.
Still for that read-out and setting: the result for B14 reads 14.4 % bound at 100 nM; that for B15, 0.54 % bound at 100 nM; that for B16, 6.01 % bound at 100 nM.
Molecule B17 came in with a binding signal of 11.5 % bound at 100 nM.
Turning to B18, the binding signal is 8.37 % bound at 100 nM.
B19: the binding signal is 15.4 % bound at 100 nM.
Molecule B20 returned a binding signal of 15.5 % bound at 100 nM.
B21 gave a binding signal of 18.8 % bound at 100 nM.
On to B22, for which the binding signal was 0.28 % bound at 100 nM.
B23: the binding signal turned out to be 0.3 % bound at 100 nM.
On the same count and under the same terms, as for B24, the figure is 0.32 % bound at 100 nM.
Molecule B25 returned a binding signal of 0.57 % bound at 100 nM.
With B26, the binding signal amounted to 13 % bound at 100 nM.
Molecule B27 displayed a binding signal of 4.48 % bound at 100 nM.
As to B28, the binding signal turned out to be 10 % bound at 100 nM.

The target of the next data set is T1, human chorionic gonadotropin (hCG) …. The data set can be described thus: filter. The settings on record: tags: Calbiochem or Vitro Diagnostics (14,000 IU/mg); chain copies: alpha/beta heterodimer (stated); label: 32P. This is another data set of the same source.
B29: the binding signal came out at 0.58 % bound at 100 nM.
B30 had a binding signal of 1.89 % bound at 100 nM.
Consider B31, for which the binding signal was 0.93 % bound at 100 nM.
Take B32: the binding signal stood at 4.81 % bound at 100 nM.
On the same count and under the same terms, the result for B33 reads 0.98 % bound at 100 nM; that for B34, 3.85 % bound at 100 nM.
The molecule B35 had a binding signal of 0.13 % bound at 100 nM.
B36 registered a binding signal of 3.09 % bound at 100 nM.
Take B37: the binding signal came to 3.77 % bound at 100 nM.
B38: the binding signal was 3.34 % bound at 100 nM.
As to B39, the binding signal worked out at 1.26 % bound at 100 nM.
The molecule B40 returned a binding signal of 5.41 % bound at 100 nM.
B41 gave a binding signal of 2.69 % bound at 100 nM.
Same read-out and setting: as for B42, the figure is 2.2 % bound at 100 nM.
B43 yielded a binding signal of 3.59 % bound at 100 nM.
